Measured values: paper PMC8980056, “RAGE-TXNIP axis drives inflammation in Alzheimer’s by targeting Aβ to mitochondria in microglia” (Cell Death & Disease, 2022)

Experiments:
[1] = target: the molecule itself; experiment: native gel or EMSA; western blot of native gel of Drp1 tetramer in LPS-primed primary microglia, without and with 4 h of Aβ dimers
[2] = target: the molecule itself; experiment: native gel or EMSA; western blot of native gel of DRP1 tetramer in hippocampus of wt and 5xFAD mice (also with siTXNIP)

Row | Protein | stoichiometry N [1] | stoichiometry N [2]
1 | Dynamin-Related Protein 1 (Drp1), endogenous in LPS-primed primary microglia (natural protein, UniProt Q8K1M6 1-736, looked up, Dynamin-Related Protein 1 (Drp1), endogenous in primary microglia; Precipitated with an anti-Drp1 antibody; seen as tetramer on a native gel; Mouse is only surmised for the primary microglia; see the supplementary methods; source: endogenous, LPS-primed primary microglia lysate) MEALIPVINKLQDVFNTVGADIIQLPQIVVVGTQSSGKSSVLESLVGRDLLPRGTGVVTRRPLILQLVHVSPEDKRKTTGEENGVEAEEWGKFLHTKNKLYTDFDEIRQEIENETERISGNNKGVSPEPIHLKVFSPNVVNLTLVDLPGMTKVPVGDQPKDIELQIRELILRFISNPNSIILAVTAANTDMATSEALKISREVDPDGRRTLAVITKLDLMDAGTDAMDVLMGRVIPVKLGIIGVVNRSQLDINNKKSVTDSIRDEYAFLQKKYPSLANRNGTKYLARTLNRLLMHHIRDCLPELKTRINVLAAQYQSLLNSYGEPVDDKSATLLQLITKFATEYCNTIEGTAKYIETSELCGGARICYIFHETFGRTLESVDPLGGLNTIDILTAIRNATGPRPALFVPEVSFELLVKRQIKRLEEPSLRCVELVHEEMQRIIQHCSNYSTQELLRFPKLHDAIVEVVTCLLRKRLPVTNEMVHNLVAIELAYINTKHPDFADACGLMNNNIEEQRRNRLARELPSAGSRDKSSKVPSALAPASQEPPPAASAEADGKLIQDNRRETKNVPSAGGGIGDGGQEPTTGNWRGMLKTSKAEELLAEEKSKPIPIMPASPQKGHAVNLLDVPVPVARKLSAREQRDCEVIERLIKSYFLIVRKNIQDSVPKAVMHFLVNHVKDTLQSELVGQLYKSSLLDDLLTESEDMAQRRKEAADMLKALQGASQIIAEIRETHLW | 4 | 
2 | Dynamin-Related Protein 1 (Drp1), endogenous in mouse hippocampus (natural protein, UniProt Q8K1M6 1-736, looked up, Dynamin-Related Protein 1 (Drp1), mouse, endogenous in the hippocampus of 5xFAD mice; Tetramer seen on a native gel; source: endogenous, hippocampus of 5xFAD mice) MEALIPVINKLQDVFNTVGADIIQLPQIVVVGTQSSGKSSVLESLVGRDLLPRGTGVVTRRPLILQLVHVSPEDKRKTTGEENGVEAEEWGKFLHTKNKLYTDFDEIRQEIENETERISGNNKGVSPEPIHLKVFSPNVVNLTLVDLPGMTKVPVGDQPKDIELQIRELILRFISNPNSIILAVTAANTDMATSEALKISREVDPDGRRTLAVITKLDLMDAGTDAMDVLMGRVIPVKLGIIGVVNRSQLDINNKKSVTDSIRDEYAFLQKKYPSLANRNGTKYLARTLNRLLMHHIRDCLPELKTRINVLAAQYQSLLNSYGEPVDDKSATLLQLITKFATEYCNTIEGTAKYIETSELCGGARICYIFHETFGRTLESVDPLGGLNTIDILTAIRNATGPRPALFVPEVSFELLVKRQIKRLEEPSLRCVELVHEEMQRIIQHCSNYSTQELLRFPKLHDAIVEVVTCLLRKRLPVTNEMVHNLVAIELAYINTKHPDFADACGLMNNNIEEQRRNRLARELPSAGSRDKSSKVPSALAPASQEPPPAASAEADGKLIQDNRRETKNVPSAGGGIGDGGQEPTTGNWRGMLKTSKAEELLAEEKSKPIPIMPASPQKGHAVNLLDVPVPVARKLSAREQRDCEVIERLIKSYFLIVRKNIQDSVPKAVMHFLVNHVKDTLQSELVGQLYKSSLLDDLLTESEDMAQRRKEAADMLKALQGASQIIAEIRETHLW |  | 4
